# Assay results: paper PMC10304477
# Columns and labels:
# [1] = biological target: extracellular domain of the S protein of SARS-CoV-2 Omicron BA.1 (BA.1-S) (SARS-CoV-2 Omicron BA.1); assay: cryo-EM structure
# [2] = biological target: extracellular domain of the S protein of SARS-CoV-2 Omicron BA.3 (BA.3-S) (SARS-CoV-2 Omicron BA.3); assay: cryo-EM structure
substance,measurement,setting,value
extracellular domain of the S protein of SARS-CoV-2 Omicron BA.1 (BA.1-S) (domain or fragment),stoichiometry N,[1],3
extracellular domain of the S protein of SARS-CoV-2 Omicron BA.3 (BA.3-S) (domain or fragment),stoichiometry N,[2],3
peptidase domain (PD) of human ACE2 (from UniProt Q9BYF1 19-615) (domain or fragment),stoichiometry N (ACE2-PD per S trimer),[1],2
